Laboratory results published in US20020081601A1, “Methods and compositions for diagnosis and treatment of cancer based on the transcription factor ets2” (MUSC Foundation For Research Development., priority 1998, published 2002).

System: DU145
Experiment: Soft agar growth assay (anchorage independent growth)
Assay type: cell-based, human
Details: DN-ETS2 transfectants vs DU145 parental; after three weeks
Protocol: Soft agar growth assays were performed in six-well plates (35-mm wells). Cells (20,000) were plated in 0.4% agar (Sigma) in RPMI 1640 supplemented with 10% FBS. An underlayer of 0.8% agar was used to prevent attachment of cells. Triplicate assays initiated with 20,000 cells were fed weekly by agar overlay and scored after 3 weeks. The soft agar assays were performed twice, independently.

B1: DN-ETS2: dominant negative ETS2 mutant: DNA binding domain (C-terminal amino acids 334-469) of human ETS2, expressed from pDN-ETS2 (protein, UniProt P15036 334-469, looked up, fragment)
chain: YIQERSDPVEQGKPVIPAAVLAGFTGSGPIQLWQFLLELLSDKSCQSFISWTGDGWEFKLADPDEVARRWGKRKNKPKMNYEKLSRGLRYYYDKNIIHKTSGKRYVYRFVCDLQNLLGFTPEELHAILGVQPDTED
- anchorage-independent growth in soft agar: do not grow well in soft agar
